A short description of this data set: protein stability index of a GFP-peptide fusion (GPS, HEK-293T) (PSI 1-6); higher = more stable. Particulars: c terminus: a fixed tail appended.

± gives the standard deviation.

Protein stability index data for 36 sequences are collected here from the supplement of paper PMC10567573.
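Also: 24-mer peptide tiles fused after GFP, lentivirally expressed, FACS-sorted into six equal bins by GFP/DsRed ratio, decoded by Illumina sequencing, PSI is the read-weighted mean bin number.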

On to LARKNREELDKYWSQQIEESTTVV [KRT18], for which the protein stability index reads like this: (treatment: DMSO) 4.24 ± 0.13; (treatment: MLN4924 1 uM, 8 h) 4.12 ± 0.23.

Turning to SHLQAAAQTPPRPGPPSAPPPPPK [SCNN1D], the protein stability index runs as follows: (treatment: DMSO) 5.09 ± 0.26; (treatment: MLN4924 1 uM, 8 h) 5.22 ± 0.14.

Consider ETIPLTAEKLCIYTDNSIRPEELL [CCND1], for which the protein stability index is, setting by setting: (treatment: DMSO) 3.59 ± 0.41; (treatment: MLN4924 1 uM, 8 h) 3.94 ± 0.34.

Consider YYAKRNALRAAEVWMDDFKSHVYM [GALNT9], for which the protein stability index came out at 2.24 ± 0.44 (treatment: DMSO) and 2.12 ± 0.26 (treatment: MLN4924 1 uM, 8 h).

Take DENERDLMHIAHIAELLEVFDLRM [RHOBTB2]: the protein stability index reads like this: (treatment: DMSO) 2.63 ± 0.11; (treatment: MLN4924 1 uM, 8 h) 2.7 ± 0.34.

Regarding GSANDYKDTLGKGSSLSAPSKKTS [KRT71], the protein stability index came to 5.33 ± 0.22 (treatment: DMSO) and 5.3 ± 0.22 (treatment: MLN4924 1 uM, 8 h).

For the sequence LDEFARENIDSLYNVNLSKGRAAL [SCNN1D], the protein stability index reads like this: (treatment: DMSO) 3.82 ± 0.17; (treatment: MLN4924 1 uM, 8 h) 3.85 ± 0.31.

Regarding LWSQSYEDSSNQEEEGPSTFPDLE [MAGEA3], the protein stability index by setting is: (treatment: DMSO) 5.26 ± 0.21; (treatment: MLN4924 1 uM, 8 h) 5.06 ± 0.14.

Consider QVQSLITNVESQLAEIRSDLERQN [KRT33B], for which the protein stability index (treatment: DMSO) stood at 3.85 ± 0.22 and the protein stability index (treatment: MLN4924 1 uM, 8 h) was 3.91 ± 0.1.

Consider CPATWGPSVEQAADSLDFDETFLA [FOXJ1], for which the protein stability index is, setting by setting: (treatment: DMSO) 4.56 ± 0.15; (treatment: MLN4924 1 uM, 8 h) 4.61 ± 0.064.

IGDTSVSYKYTSRYVLKAGQTVTI [LMNB1]: the protein stability index by setting is: (treatment: DMSO) 2.49 ± 0.73; (treatment: MLN4924 1 uM, 8 h) 2.29 ± 0.5.

Consider TPPASPPPSVLISKNEVGIFTTPN [KMT2E], for which the protein stability index reads like this: (treatment: DMSO) 4.03 ± 0.18; (treatment: MLN4924 1 uM, 8 h) 4.06 ± 0.1.

In the case of DVELLQDLGDIVARSESVLLHMPQ [TRIM43], the protein stability index by setting is: (treatment: DMSO) 3.18 ± 0.2; (treatment: MLN4924 1 uM, 8 h) 3.25 ± 0.35.

Take ECSYTSADGQRHHSKLLVSGFWGV [DHCR7]: the protein stability index runs as follows: (treatment: DMSO) 2.09 ± 0.1; (treatment: MLN4924 1 uM, 8 h) 2.17 ± 0.31.

Take WEYSSSIQNSDNDLPVVQGSSSFS [TRIM29]: the protein stability index reads like this: (treatment: DMSO) 4.61 ± 0.25; (treatment: MLN4924 1 uM, 8 h) 4.42 ± 0.36.

In turn, NALVTKLLLDCGAEVNAVDNEGNS [FEM1B] displayed a protein stability index (treatment: DMSO) of 3.64 ± 0.19 and a protein stability index (treatment: MLN4924 1 uM, 8 h) of 3.72 ± 0.17.

Consider SGGPPPKRSAPSGPVRSSSGMGGR [RBMX], for which the protein stability index runs as follows: (treatment: DMSO) 4.59 ± 0.29; (treatment: MLN4924 1 uM, 8 h) 4.51 ± 0.21.

As to QLTNTSGTVIGVTSCIVIILIIIS [NETO1], the protein stability index by setting is: (treatment: DMSO) 2.43 ± 0.27; (treatment: MLN4924 1 uM, 8 h) 2.43 ± 0.28.

For the sequence ERAPTATFHDSKHNIVHVHFDATR [WDFY2], the protein stability index (treatment: DMSO) was determined as 3.34 ± 0.17 and the protein stability index (treatment: MLN4924 1 uM, 8 h) was 3.33 ± 0.29.

As to IITQLEDSRRVTKENSHQVKEELS [TRIM63], the protein stability index (treatment: DMSO) turned out to be 4.28 ± 0.35 and the protein stability index (treatment: MLN4924 1 uM, 8 h) was determined as 4.39 ± 0.26.

As for PRSSLAESFFVDYEENEGAGPYLL [ADAMTSL2], the protein stability index came to 3.91 ± 0.17 (treatment: DMSO) and 3.82 ± 0.17 (treatment: MLN4924 1 uM, 8 h).

In the case of LYHSVKQGPISTKELADFIRERAT [FCHO1], the protein stability index reads like this: (treatment: DMSO) 2.35 ± 0.14; (treatment: MLN4924 1 uM, 8 h) 2.4 ± 0.29.

In the case of KVEFPEARIYEETLNILLYEAQDG [KCTD10], the protein stability index was found to be 2.77 ± 0.15 (treatment: DMSO) and 2.94 ± 0.35 (treatment: MLN4924 1 uM, 8 h).

As to LEGQSPPQSLPSTPKAAWIREEGR [PBXIP1], the protein stability index is, setting by setting: (treatment: DMSO) 4.89 ± 0.26; (treatment: MLN4924 1 uM, 8 h) 4.76 ± 0.091.

In the case of LLVLLLYAPVGFCLLVLRLFLGIH [AUP1], the protein stability index (treatment: DMSO) was found to be 2.21 ± 0.23 and the protein stability index (treatment: MLN4924 1 uM, 8 h) was 2.11 ± 0.2.

Turning to ATAFSKLKPESSQQPGQDALAVKA [ZBED1], the protein stability index amounted to 4.8 ± 0.5 (treatment: DMSO) and 5.21 ± 0.12 (treatment: MLN4924 1 uM, 8 h).

As for IGEGMTKYDYLMTLHGVVNESTVC [TENT5D], the protein stability index is, setting by setting: (treatment: DMSO) 2.53 ± 0.19; (treatment: MLN4924 1 uM, 8 h) 2.33 ± 0.19.

On to RKYFADLAMNYKHGDPIPKVEFTE [TPH1], for which the protein stability index runs as follows: (treatment: DMSO) 3.31 ± 0.32; (treatment: MLN4924 1 uM, 8 h) 3.3 ± 0.24.

NNVVDISVPPTTDGQKPNKLQCCQ [RAB11B]: the protein stability index is, setting by setting: (treatment: DMSO) 4.72 ± 0.26; (treatment: MLN4924 1 uM, 8 h) 4.58 ± 0.12.

KFQLNKYTGEIKISENLDYEETGF [PCDHGA10] returned a protein stability index (treatment: DMSO) of 2.6 ± 0.099 and a protein stability index (treatment: MLN4924 1 uM, 8 h) of 3.63 ± 0.36.

PVTICCGHSFCRPCLCLSWEEAQS [TRIM43]: the protein stability index was 2.61 ± 0.35 (treatment: DMSO) and 2.95 ± 0.36 (treatment: MLN4924 1 uM, 8 h).

Turning to PSGPPPPPPSVLGVGPVAPPPPPP [WASL], the protein stability index is, setting by setting: (treatment: DMSO) 4.86 ± 0.21; (treatment: MLN4924 1 uM, 8 h) 4.89 ± 0.18.

For KSNGFFHGISIPEPEDMETLEEKF [CDKL4], the protein stability index (treatment: DMSO) was 4.5 ± 0.14 and the protein stability index (treatment: MLN4924 1 uM, 8 h) amounted to 4.56 ± 0.27.

Turning to WAMRRSYEAIAKHNQVEAAWLEGR [TRIM35], the protein stability index was 2.37 ± 0.12 (treatment: DMSO) and 2.73 ± 0.3 (treatment: MLN4924 1 uM, 8 h).

Regarding VYSDLCEAAEAVRPEERKTCRNPA [ADAMTSL2], the protein stability index is, setting by setting: (treatment: DMSO) 4.83 ± 0.21; (treatment: MLN4924 1 uM, 8 h) 4.5 ± 0.49.

For KNKKKKLKKKQKRQAELLEKRLQE [SRPK2], the protein stability index runs as follows: (treatment: DMSO) 5.15 ± 0.42; (treatment: MLN4924 1 uM, 8 h) 5.06 ± 0.48.
